Read-outs that look alike come from different tables or passages of the source.
Key:
[1] = molecular target: GNNQQNY, N-terminal hepta-peptide of yeast prion protein Sup35 (yeast)
[2] = molecular target: GNNQQNY, N-terminal hepta-peptide of yeast prion protein Sup35 (yeast); remark: listed apart in the source

“GNNQQNY, N-terminal hepta-peptide of yeast prion protein Sup35” was tested, and the size of the critical nucleus n* [1] was 7.2 monomers and the size of the critical nucleus n* [2] was 6 monomers.

Source: publication doi:10.1101/2020.07.27.221150
